According to publication PMC7854179 (Molecules and Cells, 2021):

B1: HPV1a E7 CR3 (residues 39-93) (domain or fragment)
chain: LVSPQQPYAVVASCAYCEKLVRLTVLADHSAIRQLEELLLRSLNIVCPLCTLQRQ
B2: HPV16 E7 CR3 (residues 45-98) (domain or fragment)
chain: AEPDRAHYNIVTFCCKCDSTLRLCVQSTHVDIRTLEDLLMGTLGIVCPICSQKP
B3: human PTPN21 PTP domain (residues 873-1174), PTP_(PTPN21) (domain or fragment)
chain: EVATRATNDERCKILEQRLEQGMVFTEYERILKKRLVDGECSTARLPENAERNRFQDVLPYDDVRVELVPTKENNTGYINASHIKVSVSGIEWDYIATQGPLQNTCQDFWQMVWEQGIAIIAMVTAEEEGGREKSFRYWPRLGSRHNTVTYGRFKITTRFRTDSGCYATTGLKMKHLLTGQERTVWHLQYTDWPEHGCPEDLKGFLSYLEEIQSVRRHTNSTSDPQSPNPPLLVHCSAGVGRTGVVILSEIMIACLEHNEVLDIPRVLDMLRQQRMMLVQTLCQYTFVYRVLIQFLKSSRLI
B4: HPV18 E7 conserved region 3 (residues 54-105), CR3_(18E7) (domain or fragment)
chain: AEPQRHTMLCMCCKCEARIKLVVESSADDLRAFQQLFLNTLSFVCPWCASQQ
B5: HPV11 E7 CR3 (residues 45-98) (domain or fragment)
chain: AQPLTQHYQILTCCCGCDSNVRLVVECTDGDIRQLQDLLLGTLNIVCPICAPKP

Key:
SEC-MALS = biological target: the molecule itself; assay: SEC-MALS
[1] = biological target: B2; assay: SEC-MALS
[2] = biological target: B1; assay: SEC-MALS
[3] = biological target: B4; assay: SEC-MALS
[4] = biological target: B5; assay: SEC-MALS
[5] = biological target: B4; assay: SAXS
[6] = biological target: B3; assay: ITC
[7] = biological target: T1, human PTPN14 PTP domain (residues 886-1187), PTP_(PTPN14) (human, UniProt Q15678 886-1187); assay: SAXS
T1 sequence: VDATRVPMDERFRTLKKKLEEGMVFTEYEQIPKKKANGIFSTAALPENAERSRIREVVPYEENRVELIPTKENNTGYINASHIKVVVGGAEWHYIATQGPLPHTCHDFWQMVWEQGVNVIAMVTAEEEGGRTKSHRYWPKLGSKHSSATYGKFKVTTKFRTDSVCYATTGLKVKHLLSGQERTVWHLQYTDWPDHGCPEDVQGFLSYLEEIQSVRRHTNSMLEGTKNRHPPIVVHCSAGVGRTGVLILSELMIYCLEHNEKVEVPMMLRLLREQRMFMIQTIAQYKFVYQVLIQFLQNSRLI

With B1 the “stoichiometry N” value (SEC-MALS) was 2.

For B2, the “stoichiometry N” value (SEC-MALS) was 2.

With B3 the “stoichiometry N” value [1] was 1 PTP_(PTPN21) per E7 CR3 chain (2:2), the “stoichiometry N” value [2] was 1 PTP_(PTPN21) per E7 CR3 chain (2:2) and the “stoichiometry N” value [3] was 1 PTP_(PTPN21) per E7 CR3 chain (2:2). The “stoichiometry N” value [4] was 1 PTP_(PTPN21) per E7 CR3 chain (2:2) and the “stoichiometry N” value [5] was 1 PTP_(PTPN21) per CR3_(18E7) chain (2:2).

With B4 the Kd [6] was 5.43 nM, the “stoichiometry N” value (SEC-MALS) was 2 and the binding result [7] was “binds”.

In the case of B5, the “stoichiometry N” value (SEC-MALS) is reported as 2.
